Source: article PMC10221132, “DA7R: A 7-Letter Zip Code to Target PDAC” (Pharmaceutics, 2023)
Where a SMILES comes first, the peptide text is derived from it.

Tests used:
[1] = Blood stability: hydrolysis of PAPTPL-peptide derivatives in mouse blood; format: in vitro ADME; conditions: heparinized mouse whole blood, 5 µM from 5 mM DMSO stock, 37 °C, 4 h, UHPLC/UV 312 nm, mean of n = 3
Method: Procedures involving animals were approved by the University of Padova Ethical Committee for Animal Welfare (OPBA) and by the Italian Ministry of Health (Permit Number 846/2021-PR), and conducted with the supervision of the Central Veterinary Service of the University of Padova, in compliance with Italian Law DL 26/2014, embodying UE Directive 2010/63/EU. Mice were anesthetized and blood was withdrawn from the jugular vein and heparinized. Blood samples (1 mL) were spiked with compound (5 µM; dilution from a 5 mM stock solution in DMSO) and incubated at 37 °C for 4 h (the maximum period allowed by blood stability). Aliquots (100 µL) were taken after 10 min, 30 min, 1 h, 2 h, and 4 h, kept on ice, and treated as follows: blood was mixed with 5 volumes of 0.1%TFA in CH3CN, mixed and sonicated for 2 min, and finally centrifuged for 7 min at 12,000× g; the supernatant was collected and analyzed by UHPLC. Quantitative analyses were carried out by UHPLC (1290 Infinity LC System, Agilent Technologies, Milan, Italy) using a reversed-phase column (Zorbax RRHT Extend C18, 1.8 µm, 50 × 3.0 mm, Agilent Technologies) and a UV diode array detector (190–500 nm), at a flow rate of 0.6 mL/min. Solvents A and B were 0.1% TFA in water and CH3CN, respectively. The gradient for B was as follows: 10% for 1 min, then from 10 to 100% in 8.0 min, 100% for 0.5 min, then from 100% to 10% in 1.5 min. The injection volume was 5 µL. The eluate was preferentially monitored at 312 nm (corresponding to an absorbance maximum of psoralenic compounds). The temperature of the column was kept at 25 °C. Concentration of PAPTPL or its derivatives was determined using the following calibration curve, which correlates peak area at 312 nm (y) with compound concentration in the sample (x): y = 6.3321x. The stability in blood was expressed as % of PAPTPL released relative to the amount of the derivative initially spiked in the sample.

[2] = tested on: erythrocytes; test: Hemolysis assay; format: cell-based; conditions: 5 × 10^7 erythrocytes in 1 mL PBS pH 7.4; 1, 0.5, 0.25 or 0.125 nmoles/10^7 cells; 15 min; Abs 540 nm; relative to Triton X-100 1%; n = 3
Method: Hemolysis studies were conducted as described in [48]. Briefly, freshly withdrawn blood samples were centrifuged at 2000× g for 10 min to obtain erythrocytes; the pellet was then washed three times with sterile PBS (pH 7.4). Erythrocytes (5 × 10^7 cells in 1 mL of PBS for each experimental condition) were incubated with the tested compounds at the concentrations of 1, 0.5, 0.25, or 0.125 nmoles/10^7 cells for 15 min. The samples were then centrifuged and the absorbance (Abs) of the supernatant was measured at 540 nm. Triton X-100 1% and PBS were used as positive and negative control, respectively. The percentage of hemolysis was calculated with the following equation:% hemolysis = [(Abssample − AbsPBS)/(AbsTriton X-100 − AbsPBS)] × 100

[3] = tested on: HPAFII cells; test: Cell uptake of PAPTPL-I-DA7R (HPLC/UV); format: cell-based, human; conditions: 5 µM, 15 min, 37 °C, DMEM without Phenol Red and serum, nmoles/mg total protein, n ≥ 9
Method: HPAFII and Pan02 cells were seeded in 6-well plates at a density of 300,000 and 150,000 cells/well, respectively, and grown for 48 h. They were then washed twice with PBS and incubated for 15 min at 37 °C with a solution of 5 µM PAPTPL-I-DA7R in DMEM without Phenol Red and serum. At the end of the incubation, cells were washed twice, 100 µL of PBS were added, and finally the cells were scraped and collected. A volume of 100 µL of CH3CN + 0.1%TFA was added, and the mixture was vortexed and sonicated for 5 min. Samples were finally centrifuged for 5 min at 12,000× g, and the supernatant was collected and the amount of PAPTPL-I-DA7R was quantified by HPLC/UV, as described in Section 2.5 (blood stability). The remaining cell pellets were resuspended in 200 µL of SDS 2%, and the total protein amount of each sample was quantified with the BCA assay. Cell uptake of PAPTPL-I-DA7R was expressed as nmoles of PAPTPL-I-DA7R/total protein.

[4] = tested on: NRP-1; conditions: surface plasmon resonance; cited from earlier work
Description: (§1) A7R peptide binds to both neuropilin-1 (NRP-1) and vascular endothelial growth factor receptor-2 (VEGFR2/KDR), disrupting their receptor/coreceptor interaction, and impacting, therefore, on angiogenesis and tumor growth. […] Binding of A7R to NRP-1, on the other hand, mainly involves interactions of Arg with the ...

[5] = tested on: VEGFR2; conditions: surface plasmon resonance; cited from earlier work
Description: as §1

Structure (SMILES) | % of conjugate hydrolyzed (PAPTPL released relative to derivative initially spiked) [1] | Hemolysis [2] | Uptake by HPAFII cells relative to cultured Pan02 cells [3] | Affinity for NRP-1 [4] | Affinity for VEGFR2 [5]
CC[C@H](C)[C@H](NC(=O)Oc1ccc(CCCOc2ccc([P+](CCCc3ccc(OCCCCOc4c5ccoc5cc5oc(=O)ccc45)cc3)(c3ccccc3)c3ccccc3)cc2)cc1)C(=O)N[C@H](CCCNC(=N)N)C(=O)N1CCC[C@@H]1C(=O)N1CCC[C@@H]1C(=O)N[C@H](CC(C)C)C(=O)N[C@H](Cc1c[nH]c2ccccc12)C(=O)N[C@@H](C(=O)N[C@H](C)C(=O)O)[C@H](C)O [PAPTPL-I-DA7R] (HELM PEPTIDE1{[O=C(Oc1ccc(CCCOc2ccc([P+](CCCc3ccc(OCCCCOc4c5ccoc5cc5oc(=O)ccc45)cc3)(c3ccccc3)c3ccccc3)cc2)cc1)[*:2]].I.[dR].[dP].[dP].[dL].[dW].[dT].[dA]}$$$$V2.0) | about 30% | did not induce any hemolysis | roughly twice as much |  | 
CC(C)C[C@@H](NC(=O)[C@H]1CCCN1C(=O)[C@H]1CCCN1C(=O)[C@@H](CCCNC(=N)N)NC(=O)CCCc1cn(CCOCCOCCOCCOCCNC(=O)Oc2ccc(CCCOc3ccc([P+](CCCc4ccc(OCCCCOc5c6ccoc6cc6oc(=O)ccc56)cc4)(c4ccccc4)c4ccccc4)cc3)cc2)nn1)C(=O)N[C@H](Cc1c[nH]c2ccccc12)C(=O)N[C@@H](C(=O)N[C@H](C)C(=O)O)[C@H](C)O [PAPTPL-Teg-DA7R] | about 50% | increase in the ability of the derivative (PAPTPL-Teg-DA7R) to lyse erythrocytes |  |  | 
CC(C)C[C@@H]1NC(=O)[C@H](Cc2c[nH]c3ccccc23)NC(=O)[C@H]([C@@H](C)O)NC(=O)[C@H](C)NC(=O)[C@H](Cc2cn(CCOCCOCCOCCOCCNC(=O)Oc3ccc(CCCOc4ccc([P+](CCCc5ccc(OCCCCOc6c7ccoc7cc7oc(=O)ccc67)cc5)(c5ccccc5)c5ccccc5)cc4)cc3)nn2)NC(=O)[C@H](CCCNC(=N)N)NC(=O)[C@@H]2CCCN2C(=O)[C@@H]2CCCN2C1=O [PAPTPL-Teg-cA7R] | about 50% | dramatic increase in the hemolysis |  |  | 
C#CC[C@@H]1NC(=O)[C@H](CCCNC(=N)N)NC(=O)[C@@H]2CCCN2C(=O)[C@@H]2CCCN2C(=O)[C@H](CC(C)C)NC(=O)[C@H](Cc2c[nH]c3ccccc23)NC(=O)[C@H]([C@@H](C)O)NC(=O)[C@H](C)NC1=O [cA7R] (HELM PEPTIDE1{A.T.W.L.P.P.R.[C#CC[C@H](N[*:1])C(=O)[*:2]]}$PEPTIDE1,PEPTIDE1,1:R1-8:R2$$$V2.0) |  | completely ineffective towards erythrocytes |  | retain affinity | retain affinity
